Measurements published in patent US20220204580A1 (AstraZeneca / MedImmune, published 2022).
Numbered stars: 1 amine (or outer) side, 2 acyl side, 3 side chain; on linkers, the order of the positions; unused ones are H or OH. Bridge positions count the residues as written; N and C are the ends. Square brackets hold non-standard residues; d marks the D form. Side chains are listed from the residue outwards. Ends that are not written are not given here. * marks the point of attachment. C18 diacid = O=C(O)CCCCCCCCCCCCCCCCC(=O)*; γGlu = O=C(O)[C@H](CCC(=O)[*:2])N[*:1]; Dab = NCC[C@H](N)C(=O)O; Aib = CC(C)(N)C(=O)O

T1: human amylin receptor (calcitonin receptor co-expressed with receptor activity modifying protein, RAMP3) (human, UniProt P30988 25-474; O60896 24-148)
T1 sequence (looked up) 1: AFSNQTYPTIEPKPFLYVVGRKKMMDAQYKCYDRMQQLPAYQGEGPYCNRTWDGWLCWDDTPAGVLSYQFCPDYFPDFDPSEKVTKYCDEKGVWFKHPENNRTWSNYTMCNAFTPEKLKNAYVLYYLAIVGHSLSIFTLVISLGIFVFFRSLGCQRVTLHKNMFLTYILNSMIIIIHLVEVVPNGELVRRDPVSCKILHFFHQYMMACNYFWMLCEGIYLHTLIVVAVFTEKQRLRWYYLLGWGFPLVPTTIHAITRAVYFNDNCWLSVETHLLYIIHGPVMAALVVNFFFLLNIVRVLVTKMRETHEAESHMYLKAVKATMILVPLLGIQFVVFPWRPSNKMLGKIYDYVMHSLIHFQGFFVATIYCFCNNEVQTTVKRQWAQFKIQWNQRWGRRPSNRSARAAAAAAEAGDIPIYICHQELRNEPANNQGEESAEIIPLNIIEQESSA
T1 sequence (looked up) 2: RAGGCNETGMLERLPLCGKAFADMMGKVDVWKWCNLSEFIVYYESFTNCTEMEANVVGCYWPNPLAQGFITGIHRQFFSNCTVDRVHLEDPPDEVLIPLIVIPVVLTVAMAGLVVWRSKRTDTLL

T2: human calcitonin receptor (human, UniProt P30988 25-474)
T2 sequence (looked up): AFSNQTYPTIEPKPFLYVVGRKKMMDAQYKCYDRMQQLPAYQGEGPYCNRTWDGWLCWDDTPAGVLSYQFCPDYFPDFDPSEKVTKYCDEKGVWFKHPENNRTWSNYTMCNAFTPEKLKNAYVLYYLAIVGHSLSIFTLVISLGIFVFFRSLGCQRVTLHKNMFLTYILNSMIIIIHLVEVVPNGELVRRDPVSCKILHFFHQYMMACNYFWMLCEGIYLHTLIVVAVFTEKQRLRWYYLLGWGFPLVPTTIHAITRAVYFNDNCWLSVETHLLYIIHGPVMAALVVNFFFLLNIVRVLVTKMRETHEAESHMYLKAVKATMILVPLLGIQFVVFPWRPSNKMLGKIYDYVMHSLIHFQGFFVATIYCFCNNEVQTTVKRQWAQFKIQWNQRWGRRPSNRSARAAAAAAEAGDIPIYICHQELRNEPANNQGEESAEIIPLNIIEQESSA

T3: rat calcitonin receptor (rat, UniProt P32214 25-516)
T3 sequence (looked up): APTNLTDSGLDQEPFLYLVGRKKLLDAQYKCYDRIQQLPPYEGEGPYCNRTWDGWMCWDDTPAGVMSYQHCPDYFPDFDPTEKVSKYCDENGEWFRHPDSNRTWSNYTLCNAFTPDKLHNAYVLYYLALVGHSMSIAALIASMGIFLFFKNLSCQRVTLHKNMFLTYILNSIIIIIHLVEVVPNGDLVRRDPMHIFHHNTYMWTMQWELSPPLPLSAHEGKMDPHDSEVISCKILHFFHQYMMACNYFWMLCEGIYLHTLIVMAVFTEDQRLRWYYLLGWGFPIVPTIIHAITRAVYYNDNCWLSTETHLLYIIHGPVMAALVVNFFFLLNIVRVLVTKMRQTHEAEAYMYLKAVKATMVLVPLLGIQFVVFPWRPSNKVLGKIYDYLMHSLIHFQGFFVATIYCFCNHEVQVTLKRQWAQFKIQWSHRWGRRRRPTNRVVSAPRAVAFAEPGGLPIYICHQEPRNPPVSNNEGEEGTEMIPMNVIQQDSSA

T4: rat amylin receptor (calcitonin receptor co-expressed with receptor activity modifying protein, RAMP3) (rat, UniProt P32214 25-516; Q9JJ73 23-147)
T4 sequence (looked up) 1: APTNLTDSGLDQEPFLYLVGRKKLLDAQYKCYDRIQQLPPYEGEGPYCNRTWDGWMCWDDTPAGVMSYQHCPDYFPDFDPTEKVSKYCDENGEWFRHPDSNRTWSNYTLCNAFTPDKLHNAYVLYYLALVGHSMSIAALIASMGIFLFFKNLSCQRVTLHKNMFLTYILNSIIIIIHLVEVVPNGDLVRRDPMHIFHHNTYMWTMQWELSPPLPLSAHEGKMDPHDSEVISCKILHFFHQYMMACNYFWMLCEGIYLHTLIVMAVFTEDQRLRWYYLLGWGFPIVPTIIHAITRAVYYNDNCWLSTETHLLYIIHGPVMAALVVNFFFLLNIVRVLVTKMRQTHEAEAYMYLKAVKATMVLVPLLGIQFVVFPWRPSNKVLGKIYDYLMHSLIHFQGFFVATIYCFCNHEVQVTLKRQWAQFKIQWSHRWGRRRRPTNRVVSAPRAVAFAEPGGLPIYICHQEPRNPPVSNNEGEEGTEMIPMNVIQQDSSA
T4 sequence (looked up) 2: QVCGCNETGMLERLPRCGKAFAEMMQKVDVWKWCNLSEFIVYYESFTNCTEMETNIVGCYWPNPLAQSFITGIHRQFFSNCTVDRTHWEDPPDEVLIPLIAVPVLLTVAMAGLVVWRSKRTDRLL


What was measured:
Assay in all cases: cell-based or functional assay
[1] = biological target: T1, human amylin receptor (calcitonin …)
[2] = biological target: T2, human calcitonin receptor
rat calcitonin receptor = biological target: T3, rat calcitonin receptor
[3] = biological target: T4, rat amylin receptor (calcitonin …)

Binder	EC50 (cAMP production) [1] [nM]	Ratio (EC50 hCTR / EC50 hAMYR3) [1]	EC50 (cAMP production) [2] [nM]	EC50 (cAMP production) (rat calcitonin receptor) [nM]	EC50 (cAMP production) [3] [nM]
K([γGlu-C18 diacid])KCNTATCATQRLA[Dab]FLVHSSNNFGPILPPTEVGSNTY-NH2 (disulfide 3-8; N-terminus assumed; SMILES CC[C@H](C)[C@H](NC(=O)[C@@H]1CCCN1C(=O)CNC(=O)[C@H](Cc1ccccc1)NC(=O)[C@H](CC(N)=O)NC(=O)[C@H](CC(N)=O)NC(=O)[C@H](CO)NC(=O)[C@H](CO)NC(=O)[C@H](Cc1c[nH]cn1)NC(=O)[C@@H](NC(=O)[C@H](CC(C)C)NC(=O)[C@H](Cc1ccccc1)NC(=O)[C@H](CCN)NC(=O)[C@H](C)NC(=O)[C@H](CC(C)C)NC(=O)[C@H](CCCNC(=N)N)NC(=O)[C@H](CCC(N)=O)NC(=O)[C@@H](NC(=O)[C@H](C)NC(=O)[C@@H]1CSSC[C@H](NC(=O)[C@H](CCCCN)NC(=O)[C@@H](N)CCCCNC(=O)CC[C@H](NC(=O)CCCCCCCCCCCCCCCCC(=O)O)C(=O)O)C(=O)N[C@@H](CC(N)=O)C(=O)N[C@@H]([C@@H](C)O)C(=O)N[C@@H](C)C(=O)N[C@@H]([C@@H](C)O)C(=O)N1)[C@@H](C)O)C(C)C)C(=O)N[C@@H](CC(C)C)C(=O)N1CCC[C@H]1C(=O)N1CCC[C@H]1C(=O)N[C@H](C(=O)N[C@@H](CCC(=O)O)C(=O)N[C@H](C(=O)NCC(=O)N[C@@H](CO)C(=O)N[C@@H](CC(N)=O)C(=O)N[C@H](C(=O)N[C@@H](Cc1ccc(O)cc1)C(N)=O)[C@@H](C)O)C(C)C)[C@@H](C)O) [Peptide 34 (SEQ ID NO: 34)]	0.877	20	17.7	–	–
K([γGlu-C18 diacid])KCNTATCATQRLANFLVHSS[Aib]NFGPILPPTNVGSNTY-NH2 (disulfide 3-8; N-terminus assumed; SMILES CC[C@H](C)[C@H](NC(=O)[C@@H]1CCCN1C(=O)CNC(=O)[C@H](Cc1ccccc1)NC(=O)[C@H](CC(N)=O)NC(=O)C(C)(C)NC(=O)[C@H](CO)NC(=O)[C@H](CO)NC(=O)[C@H](Cc1c[nH]cn1)NC(=O)[C@@H](NC(=O)[C@H](CC(C)C)NC(=O)[C@H](Cc1ccccc1)NC(=O)[C@H](CC(N)=O)NC(=O)[C@H](C)NC(=O)[C@H](CC(C)C)NC(=O)[C@H](CCCNC(=N)N)NC(=O)[C@H](CCC(N)=O)NC(=O)[C@@H](NC(=O)[C@H](C)NC(=O)[C@@H]1CSSC[C@H](NC(=O)[C@H](CCCCN)NC(=O)[C@@H](N)CCCCNC(=O)CC[C@H](NC(=O)CCCCCCCCCCCCCCCCC(=O)O)C(=O)O)C(=O)N[C@@H](CC(N)=O)C(=O)N[C@@H]([C@@H](C)O)C(=O)N[C@@H](C)C(=O)N[C@@H]([C@@H](C)O)C(=O)N1)[C@@H](C)O)C(C)C)C(=O)N[C@@H](CC(C)C)C(=O)N1CCC[C@H]1C(=O)N1CCC[C@H]1C(=O)N[C@H](C(=O)N[C@@H](CC(N)=O)C(=O)N[C@H](C(=O)NCC(=O)N[C@@H](CO)C(=O)N[C@@H](CC(N)=O)C(=O)N[C@H](C(=O)N[C@@H](Cc1ccc(O)cc1)C(N)=O)[C@@H](C)O)C(C)C)[C@@H](C)O) [Peptide 35 (SEQ ID NO: 35)]	0.259	55	14.2	0.514	0.0059
K([γGlu-C18 diacid])KCNTATCATQRLAEFLVHSS[Aib]NFGPILPPTNVGSNTY-NH2 (disulfide 3-8; N-terminus assumed; SMILES CC[C@H](C)[C@H](NC(=O)[C@@H]1CCCN1C(=O)CNC(=O)[C@H](Cc1ccccc1)NC(=O)[C@H](CC(N)=O)NC(=O)C(C)(C)NC(=O)[C@H](CO)NC(=O)[C@H](CO)NC(=O)[C@H](Cc1c[nH]cn1)NC(=O)[C@@H](NC(=O)[C@H](CC(C)C)NC(=O)[C@H](Cc1ccccc1)NC(=O)[C@H](CCC(=O)O)NC(=O)[C@H](C)NC(=O)[C@H](CC(C)C)NC(=O)[C@H](CCCNC(=N)N)NC(=O)[C@H](CCC(N)=O)NC(=O)[C@@H](NC(=O)[C@H](C)NC(=O)[C@@H]1CSSC[C@H](NC(=O)[C@H](CCCCN)NC(=O)[C@@H](N)CCCCNC(=O)CC[C@H](NC(=O)CCCCCCCCCCCCCCCCC(=O)O)C(=O)O)C(=O)N[C@@H](CC(N)=O)C(=O)N[C@@H]([C@@H](C)O)C(=O)N[C@@H](C)C(=O)N[C@@H]([C@@H](C)O)C(=O)N1)[C@@H](C)O)C(C)C)C(=O)N[C@@H](CC(C)C)C(=O)N1CCC[C@H]1C(=O)N1CCC[C@H]1C(=O)N[C@H](C(=O)N[C@@H](CC(N)=O)C(=O)N[C@H](C(=O)NCC(=O)N[C@@H](CO)C(=O)N[C@@H](CC(N)=O)C(=O)N[C@H](C(=O)N[C@@H](Cc1ccc(O)cc1)C(N)=O)[C@@H](C)O)C(C)C)[C@@H](C)O) [Peptide 38 (SEQ ID NO: 38)]	0.19	6	1.05	0.0203	0.0051

Next, values leading:

EC50 (cAMP production) [1] [nM]	Ratio (EC50 hCTR / EC50 hAMYR3) [1]	EC50 (cAMP production) [2] [nM]	EC50 (cAMP production) (rat calcitonin receptor) [nM]	EC50 (cAMP production) [3] [nM]	Binder
0.228	15	3.33	0.782	0.012	K([γGlu-C18 diacid])KCNTATCATQRLANFLVHSS[Aib]NFGPILPPTHVGSNTY-NH2 (disulfide 3-8; N-terminus assumed; SMILES CC[C@H](C)[C@H](NC(=O)[C@@H]1CCCN1C(=O)CNC(=O)[C@H](Cc1ccccc1)NC(=O)[C@H](CC(N)=O)NC(=O)C(C)(C)NC(=O)[C@H](CO)NC(=O)[C@H](CO)NC(=O)[C@H](Cc1c[nH]cn1)NC(=O)[C@@H](NC(=O)[C@H](CC(C)C)NC(=O)[C@H](Cc1ccccc1)NC(=O)[C@H](CC(N)=O)NC(=O)[C@H](C)NC(=O)[C@H](CC(C)C)NC(=O)[C@H](CCCNC(=N)N)NC(=O)[C@H](CCC(N)=O)NC(=O)[C@@H](NC(=O)[C@H](C)NC(=O)[C@@H]1CSSC[C@H](NC(=O)[C@H](CCCCN)NC(=O)[C@@H](N)CCCCNC(=O)CC[C@H](NC(=O)CCCCCCCCCCCCCCCCC(=O)O)C(=O)O)C(=O)N[C@@H](CC(N)=O)C(=O)N[C@@H]([C@@H](C)O)C(=O)N[C@@H](C)C(=O)N[C@@H]([C@@H](C)O)C(=O)N1)[C@@H](C)O)C(C)C)C(=O)N[C@@H](CC(C)C)C(=O)N1CCC[C@H]1C(=O)N1CCC[C@H]1C(=O)N[C@H](C(=O)N[C@@H](Cc1c[nH]cn1)C(=O)N[C@H](C(=O)NCC(=O)N[C@@H](CO)C(=O)N[C@@H](CC(N)=O)C(=O)N[C@H](C(=O)N[C@@H](Cc1ccc(O)cc1)C(N)=O)[C@@H](C)O)C(C)C)[C@@H](C)O) [Peptide 40 (SEQ ID NO: 40)]
0.178	7	1.18	0.925	0.0082	K([γGlu-C18 diacid])KCNTATCATQRLANFLVHSS[Aib]NFGPILPPTEVGSNTY-NH2 (disulfide 3-8; N-terminus assumed; SMILES CC[C@H](C)[C@H](NC(=O)[C@@H]1CCCN1C(=O)CNC(=O)[C@H](Cc1ccccc1)NC(=O)[C@H](CC(N)=O)NC(=O)C(C)(C)NC(=O)[C@H](CO)NC(=O)[C@H](CO)NC(=O)[C@H](Cc1c[nH]cn1)NC(=O)[C@@H](NC(=O)[C@H](CC(C)C)NC(=O)[C@H](Cc1ccccc1)NC(=O)[C@H](CC(N)=O)NC(=O)[C@H](C)NC(=O)[C@H](CC(C)C)NC(=O)[C@H](CCCNC(=N)N)NC(=O)[C@H](CCC(N)=O)NC(=O)[C@@H](NC(=O)[C@H](C)NC(=O)[C@@H]1CSSC[C@H](NC(=O)[C@H](CCCCN)NC(=O)[C@@H](N)CCCCNC(=O)CC[C@H](NC(=O)CCCCCCCCCCCCCCCCC(=O)O)C(=O)O)C(=O)N[C@@H](CC(N)=O)C(=O)N[C@@H]([C@@H](C)O)C(=O)N[C@@H](C)C(=O)N[C@@H]([C@@H](C)O)C(=O)N1)[C@@H](C)O)C(C)C)C(=O)N[C@@H](CC(C)C)C(=O)N1CCC[C@H]1C(=O)N1CCC[C@H]1C(=O)N[C@H](C(=O)N[C@@H](CCC(=O)O)C(=O)N[C@H](C(=O)NCC(=O)N[C@@H](CO)C(=O)N[C@@H](CC(N)=O)C(=O)N[C@H](C(=O)N[C@@H](Cc1ccc(O)cc1)C(N)=O)[C@@H](C)O)C(C)C)[C@@H](C)O) [Peptide 41 (SEQ ID NO: 41)]
